B1: Suc2-tSPF: fusion protein of Suc2 signal peptide at N-terminus of tSPF (SEQ ID NO: 23), expressed in yeast from pSEC-Suc2-tSPF (protein)
chain: MLLQAFLFLLAGFAAKISAMEFSGRVGDLSPRQKEALAKFRENVQDVLPALPNPDDYFLLRWLRARSFDLQKSEAMLRKHVEFRKQKDIDNIISWQPPEVIQQYLSGGMCGYDLDGCPVWYDIIGPLDAKGLLFSASKQDLLRTKMRECELLLQECAHQTTKLGRKVETITAIYDCEGLGLKHLWKPAVEAYGEALCMFEENYPETLKRLFVVKAPKLFPVAYNLIKPFLSEDTRKKIMVLGANWKEVLLKHISPDQVPVEYGGTMTDPDGNPKCKSKINYGGDIPRKYYVRDQVK
modifications: Suc2-tSPF
B2: Pho5-tSPF: fusion protein of Pho5 signal peptide at N-terminus of tSPF (SEQ ID NO: 24), expressed in yeast from pSEC-Pho5-tSPF (protein)
chain: MFKSVVYSILAASLANAMEFSGRVGDLSPRQKEALAKFRENVQDVLPALPNPDDYFLLRWLRARSFDLQKSEAMLRKHVEFRKQKDIDNIISWQPPEVIQQYLSGGMCGYDLDGCPVWYDIIGPLDAKGLLFSASKQDLLRTKMRECELLLQECAHQTTKLGRKVETITAIYDCEGLGLKHLWKPAVEAYGEALCMFEENYPETLKRLFVVKAPKLFPVAYNLIKPFLSEDTRKKIMVLGANWKEVLLKHISPDQVPVEYGGTMTDPDGNPKCKSKINYGGDIPRKYYVRDQVK
modifications: Pho5-SPF
B3: MFα-tSPF: fusion protein of MFα signal peptide at N-terminus of tSPF (SEQ ID NO: 25), expressed in yeast from pSEC-MFα-tSPF (protein)
chain: MRFPSIFTAVLFAASSALAAPVNTTTEDETAQIPAEAVIGYSDLEGDFDVAVLPFSNSTNNGLLFINTTIASIAAKEEGVSLEKREAEAMEFSGRVGDLSPRQKEALAKFRENVQDVLPALPNPDDYFLLRWLRARSFDLQKSEAMLRKHVEFRKQKDIDNIISWQPPEVIQQYLSGGMCGYDLDGCPVWYDIIGPLDAKGLLFSASKQDLLRTKMRECELLLQECAHQTTKLGRKVETITAIYDCEGLGLKHLWKPAVEAYGEALCMFEENYPETLKRLFVVKAPKLFPVAYNLIKPFLSEDTRKKIMVLGANWKEVLLKHISPDQVPVEYGGTMTDPDGNPKCKSKINYGGDIPRKYYVRDQVK
modifications: MF-tSPF
B4: tSPF: truncated supernatant protein factor, amino acids 1 to 275 of SPF (SEQ ID NO: 2), without secretion signal; control expressed from pSEC-tSPF (protein)
chain: MSGRVGDLSPRQKEALAKFRENVQDVLPALPNPDDYFLLRWLRARSFDLQKSEAMLRKHVEFRKQKDIDNIISWQPPEVIQQYLSGGMCGYDLDGCPVWYDIIGPLDAKGLLFSASKQDLLRTKMRECELLLQECAHQTTKLGRKVETITIIYDCEGLGLKHLWKPAVEAYGEFLCMFEENYPETLKRLFVVKAPKLFPVAYNLIKPFLSEDTRKKIMVLGANWKEVLLKHISPDQVPVEYGGTMTDPDGNPKCKSKINYGGDIPRKYYVRDQVK
modifications: truncated SPF

Assays:
Assay type in all cases: cell-based, Saccharomyces cerevisiae
SQ strain [1] = test: Squalene production and secretion by SQ strains transformed with tSPF fused to a secretion signal sequence (HPLC of cell lysate and dodecane layer); conditions: for Intracellular (mg/L) / Intracellular (mg/g): squalene in cells; for Extracellular: squalene in dodecane layer
Protocol: The SQ strains transformed with the pSEC-Suc2-tSPF, pSEC-Pho5-tSPF, and pSEC-MFα-tSPF expression vectors were cultured in flask ([…]) containing 50 mL of minimal medium (e.g., YSC medium; 0.67% (w/v) yeast nitrogen base without amino acids (BD Difco, USA), 0.19% (w/v) yeast synthetic drop-out medium supplements without uracil (Sigma-Aldrich, USA)) while stirring at 250 rpm at 30° C.
After culturing for 72 hours and 144 hours, the culture was centrifuged at 4,000 rpm to be separated into cells, a culture supernatant, and a dodecane layer. Then, the concentration of squalene in the separated cells and dodecane layer was measured. To measure the squalene concentration in the cells, the cells were resuspended in 600 μL of a mixed solution containing methanol and acetone at 1:1, transferred to a tube containing lysing matrix C (glass bead, MP Biomedicals, USA), and then underwent cell lysis by using a FastPrep-24 5G homogenizer (MP Biomedicals, USA). By centrifugation at 13,000 rpm, the lysed cells and intracellular metabolites including squalene dissolved from the lysed cells were separated.
Next, the squalene concentration in the cell lysate was measured. To measure the squalene concentration in the cell lysate, the concentration was measured by using an Agilent HPLC system after filtering the cell lysate through a 0.2 μm syringe filter.
In addition, the dodecane layer separated by centrifugation was also filtered in the same way, and then the squalene concentration was measured by using an HPLC system. […] FIGS. 2A and 2B show the squalene concentrations outside the cells or in the cells, wherein the cells were produced by yeast cells including the polynucleotide encoding tSPF fused to the secretion signal sequence.

CEN.PK2-1D yeast cells = test: Beta-carotene production and secretion by CEN.PK2-1D yeast cells co-transformed with p415-BC and pSEC-tSPF or pSEC-Suc2-tSPF; conditions: for Intracellular (mg/L) / Intracellular (mg/g): beta-carotene in cells; for Extracellular: beta-carotene in dodecane layer
Text: Through the same process as described in Section (1.2) of Example 1, the S. cerevisiae wild strain CEN.PK2-1D was co-transformed with the p415-BC vector manufactured in Section (1.2) and either pSEC-tSPF or pSEC-Suc2-tSPF, to manufacture yeast cells transformed with a vector expressing tSPF fused to a signal peptide.
CEN.PK2-1D yeast cells, which were co-transformed with the p415-BC vector obtained in Section (2.2) and either pSEC-tSPF or pSEC-Suc2-tSPF and were able to overproduce beta-carotene, were cultured for 144 hours under the same conditions as described in Section (1.3) of Example 1. Then, the amount of beta-carotene in the cultured cells and outside the cells was measured. The amount of beta-carotene was measured in the same method as the methods for cell lysis and dodecane layer separation used for the measurement of the squalene concentration. Table 2 and FIG. 6 show the amount of beta-carotene produced by culturing the CEN.PK2-1D yeast cells co-transformed with the p415-BC vector and either pSEC-tSPF or pSEC-Suc2-tSPF.

SQ strain [2] = test: Western blot analysis of cell lysates and culture supernatant of transformed SQ strains (anti-His tag); conditions: medium without dodecane layer
Protocol: FIG. 4 is a diagram showing the results of western blot analysis of the cell lysates and the culture supernatant obtained after culturing the SQ strains that were each transformed with the Suc2-tSPF, Pho5-tSPF and MFα-tSPF fusion protein genes. To confirm the extracellular secretion of the tSPF fusion protein, yeast cells were cultured in a flask ([…]) containing 50 mL minimal medium (e.g., YSC medium; 0.67% (w/v) yeast nitrogen base without amino acids (BD Difco, USA), 0.19% (w/v) yeast synthetic drop-out medium supplements without uracil (Sigma-Aldrich, USA)) supplemented with 2% (w/v) glucose while stirring at 30° C. […] To extract intracellular proteins from the cultured yeast cells in an amount corresponding to an OD600 value of 100, the cells were resuspended 1 mL of cell lysis buffer (1 mL RIPA buffer, Thermo Scientific, MA, USA) containing protease inhibitor (1× protease inhibitor cocktail, Roche Diagnostics, Mannheim, Germany). The suspension was homogenized by using a sonicator, for 6 minutes at 20% amplitude and 3 second intervals. The extracellular proteins in the supernatant of the culture medium were added to a solution in which trichloroacetic acid solution was added to 50 mL of the supernatant to account for 25%, and incubated for 30 minutes to precipitate proteins, followed by centrifugation at 4° C. for 40 minutes. The precipitated proteins were washed three times with 1 ml of cold acetone, and then resuspended in 50 μl of sterile water. The resuspended proteins were further concentrated by using 30 kDa am icon ultra centrifugal filters.
The protein samples thus prepared, i.e. the cell lysates, were mixed with 5×SDS sample buffer and separated by 10% SDS-PAGE. The proteins separated on the SDS-PAGE gel were transferred to a PVDF membrane, and blocked by incubation for one day in TBST containing 4% skim milk. The PVDF membrane was reacted with a solution containing primary antibodies at room temperature for 1 hour, and then washed with a TBST solution three times. As the primary antibody, an anti-actin antibody or an anti-His tag antibody was used. The fusion protein included a 6×His tag sequence at the C-terminus. The washed PVDF membrane was reacted again in a solution containing peroxidase-conjugated anti-IgG antibodies at room temperature for 1 hour. The PVDF membrane in which the antibody-conjugated proteins were present was visualized by using the ChemiDoc imaging system.

| Molecule | amount of extracellular squalene or extracellular squalene secretion ratio compared to the control cells (SQ strain [1]) | Intracellular (mg/L) (SQ strain [1]; 72 hours) | Intracellular (mg/g) (SQ strain [1]; 72 hours) | Intracellular (mg/L) (SQ strain [1]; 144 hours) | Intracellular (mg/g) (SQ strain [1]; 144 hours) | Extracellular (SQ strain [1]; 72 hours) | Extracellular (SQ strain [1]; 144 hours) | amount of extracellular beta-carotene or ratio of extracellular secretion compared to control cells (CEN.PK2-1D yeast cells) | extracellular secretion of beta-carotene, increase compared to the control groups containing the empty vector (CEN.PK2-1D yeast cells; 144 hours) | Intracellular (mg/L) (CEN.PK2-1D yeast cells; 144 hours) | Intracellular (mg/g) (CEN.PK2-1D yeast cells; 144 hours) | Extracellular (CEN.PK2-1D yeast cells; 144 hours) | western blot band in cell lysate (SQ strain [2]) | western blot band in culture supernatant (SQ strain [2]; culture supernatant) |
| --- | --- | --- | --- | --- | --- | --- | --- | --- | --- | --- | --- | --- | --- | --- |
| B1 | significant increase | 476.9 mg/L | 89.61 mg/g | 557.03 mg/L | 97.93 mg/g | 166.62 mg/L | 226.51 mg/L | significantly increased | about 23 fold | 7.65 mg/L | 0.82 mg/g | 1.4 mg/L | hardly appeared | – |
| B2 | significant increase | 252.17 mg/L | 51.68 mg/g | 426.85 mg/L | 72.39 mg/g | 64.55 mg/L | 190.09 mg/L | – | – | – | – | – | hardly appeared | – |
| B3 | significant increase | 210.52 mg/L | 44.88 mg/g | 551.64 mg/L | 78.42 mg/g | 4.21 mg/L | 43.25 mg/L | – | – | – | – | – | – | – |
| B4 | – | 401.51 mg/L | 55.05 mg/g | 485.04 mg/L | 59.43 mg/g | 3.67 mg/L | 13.82 mg/L | – | – | 7.04 mg/L | 0.69 mg/g | 0.23 mg/L | apparent band | did not appear |
